Assay results taken from patent publication US20190031761A1.

What was measured:
[1] = molecular target: EGFRvIII recombinant protein (rhEGFRvIII protein) used in ELISA (human) (UniProt P00533); test: concentration-dependent ELISA in triplicate, Prism nonlinear regression (apparent affinity)
[2] = molecular target: T1, EGFRvIII-specific peptide (…); test: as above
T1 sequence (peptide): LEEKKGNYVVTDHC

B1: B4A3 scFv protein (anti-EGFRvIII scFv) (scFv, part only; not given: scFv linker, domain order, tags, V domains shown, not shown: another chain or arm of the molecule; small tags and cut ends)
VH: EVQLLESGGGLVQPGGSLRLSCAASGFTFSNYYMSWVRQAPGKGLEWVSGTSPNGGSKYYADSVKGRFTISRDNSKNTLYLQMNSLRAEDTAVYYCAKGRRKLRATRFDYWGQGTLVTVSS
VL: QSVLTQPPSASGTPGQRVTISCTGSSSNIGNNYVSWYQQHPGTAPKLLIYSDSNRPSGVPDRFSGSKSGTSASLAISGLRSEDEADYYCATWDASLSAYVFGGGTKLTVL
For B1, the Kd [1] was 2.35 nM and the Kd [2] was 0.272 nM.
